In patent publication US20250179176A1, “ANTI-TIGIT ANTIBODIES AND USES OF THE SAME” (ARCUS BIOSCIENCES, INC., priority 2022, published 2025):

Key:
[1] = Phase 2 study in front-line NSCLC (ARC-7), safety
CD8+ T cells = assay: Ki67 on circulating CD8+ T cells (whole blood flow cytometry); assay type: in vivo, human
Description: Quantitation of Ki-67, a nuclear protein associated with cell cycle, is a common method to evaluate cell proliferation, especially in human samples ex vivo.
Immune cell profiling was conducted in whole blood by flow cytometry. For patients enrolled in the study described in Example 5 or Example 6, Ki67 changes on CD8^+ T cells were evaluated in whole blood by similar methods. Extracellular staining cocktails which included (minimally) CD3, CD8, and CD56 antibodies were added to 500 ul of whole blood and incubated on ice for 30 minutes. These markers were used to identify CD8^+ T cells (CD3^+CD56^− CD8^+) in both studies. For patients in the study of Example 6, extracellular cocktails also included CD45RA, CD39, and CD103 antibodies to identify an antigen-experienced memory CD8^+ T cell population (CD3^+CD56^−CD8^+CD45RA^−CD39^+CD103^+). Following extracellular staining, all blood samples were fixed and lysed using 1×BD FACSLyse buffer for 20 minutes on ice and then stored at −80° C. for up to 6 weeks. Upon thawing, samples were centrifuged at 400×g for 5 min to remove the lysing solution, washed in PBS, and then fixed and permeabilized in 100 ul of 1×FoxP3 Fixation Buffer for 1 hour at room temperature. […] The maximum fold change observed with the first cycle of treatment (between C1D1 and C2D29) was also determined for Ki67 expression on CD8^+ T cells.

[2] = tested on: CD4+ T cells, CD8+ T cells, and Tregs; assay: Peripheral T cell absolute counts and frequencies (Trucount, flow cytometry); assay type: in vivo, human; conditions: humans
Description: White blood cell counts for 11 patients have been followed for up to 85 days of treatment. See Table 17 for additional patient details. Cell counts were assessed in pre- and post-dose whole blood patient samples using commercially available Trucount tubes (BD Biosciences). CD45, CD3, CD4, CD8, CD25, and CD127 antibodies were used to detect peripheral blood T cells and Tregs using flow cytometry. The antibody cocktail and […] of whole blood was added to Trucount tubes, vortexed, and incubated for 15 minutes at room temperature. The stained whole blood was lysed using 900µl of 1×BD FACs Lyse solution followed by vortexing, and incubation for 15 minutes at room temperature. Absolute counts were calculated as detailed in the Trucount technical data sheet. Briefly, the absolute count of a cell population (A) was obtained by dividing the number of positive cells events (X) by the number of bead events (Y), and then multiplying by the BD Trucount bead concentration (N/V, where N is the number of beads per test and V is the test volume). A=X/Y×N/V. Absolute cell count was then reported per μl of whole blood (WB).
Absolute cell counts were not measured in all patients due to limited sample collection. […] Frequencies of different populations were determined relative to a parent population and each timepoint was normalized to baseline (C1D1 predose) to compute fold change.

TIGIT = target: T1, TIGIT (Homo sapiens, UniProt Q495A1); assay: TIGIT receptor occupancy (RO) assay in whole blood by flow cytometry; assay type: in vivo
T1 construct: select peripheral lymphocyte populations in whole blood collected from patients enrolled in a clinical study; endogenous in cells; host or cells: peripheral lymphocytes in whole blood of dosed patients
T1 sequence (Q495A1 22-244): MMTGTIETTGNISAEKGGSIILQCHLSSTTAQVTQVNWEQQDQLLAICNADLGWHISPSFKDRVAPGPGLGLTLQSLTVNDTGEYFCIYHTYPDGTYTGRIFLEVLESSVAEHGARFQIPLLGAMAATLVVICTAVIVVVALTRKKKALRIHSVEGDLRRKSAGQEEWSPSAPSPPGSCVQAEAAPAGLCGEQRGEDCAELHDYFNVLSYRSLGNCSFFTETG
Description: The RO assay is depicted in FIG. 3A and FIG. 3B.
The RO of domvanalimab on select peripheral lymphocyte populations in whole blood collected from patients enrolled in a clinical study was assessed by flow cytometry using pre- and post-dose whole blood samples. […] RO was determined on various immune cell types using antibodies specific for surface markers CD3, CD4, CD8, CD56, FoxP3, and Ki67. RO was calculated as follows: […]

[3] = Pharmacokinetics of domvanalimab in humans; assay type: in vivo, human; conditions: Q2W
Source text: The present example illustrates the pharmacokinetics of domvanalimab in human subjects. […] Subjects had ≥1 measurable lesion per RECIST v1.1 and ECOG performance status score 0-1.
Examination of the mean PK plots indicated similar PK across the dosing regimens.

[4] = all domvanalimab containing arms, 74 participants, initial cutoff
[5] = first cycle, over 20-fold dose range 0.5-10 mg/kg

zimberelimab: antagonistic PD-1 antibody, immune checkpoint inhibitor
Any TEAEs Leading to Death ([1]; Table 4, initial cutoff): 3 (8) n (%)
SAE COVID-19, events ([1]; Table 7, initial cutoff): 0 n
SAE COVID-19, subjects ([1]; Table 7, initial cutoff): 0 n (%)
Any TEAEs Leading to Death ([1]; Table 10, later cutoff): 3 (6.0) n (%)
Any TEAEs Leading to Death, related to study treatment ([1]; Table 10, later cutoff): 1 (2.0) n (%)
Grade 5 TEAEs related to study treatment (per physician assessment) ([1]; safety population (149 patients)): interstitial lung disease
proliferating CD8+ T cells (CD8+ T cells; patients of the Example 6 study, PD-L1hi NSCLC): Increases

B1: domvanalimab: anti-TIGIT antibody with engineered IgG1 Fc, reduced FcγR binding; heavy chain SEQ ID NO: 12, light chain SEQ ID NO: 13 (antibody)
heavy: EVQLVESGGGLVQPGGSLRLSCAASGFTFSNFGMHWVRQAPGKGLEWVAFISSGSSSIYYADTVKGRFTISRDNAKNSLYLQMNSLRAEDTAVYYCARMRLDYYAMDYWGQGTMVTVSSASTKGPSVFPLAPSSKSTSGGTAALGCLVKDYFPEPVTVSWNSGALTSGVHTFPAVLQSSGLYSLSSVVTVPSSSLGTQTYICNVNHKPSNTKVDKKVEPKSCDKTHTCPPCPAPEAAGGPSVFLFPPKPKDTLMISRTPEVTCWVDVSHEDPEVKFNWYVDGVEVHNAKTKPREEQYNSTYRWSVLTVLHQDWLNGKEYKCKVSNKALPAPIEKTISKAKGQPREPQVYTLPPSRDELTKNQVSLTCLVKGFYPSDIAVEWESNGQPENNYKTTPPVLDSDGSFFLYSKLTVDKSRWQQGNVFSCSVMHEALHNHYTQKSLSLSPGK
light: DIQMTQSPSSLSASVGDRVTITCRASKSISKYLAWYQQKPGKAPKLLIYSGSTLQSGVPSRFSGSGSGTDFTLTISSLQPEDFATYYCQQHNEYPWTFGGGTKVEIKRTVAAPSVFIFPPSDEQLKSGTASWCLLNNFYPREAKVQWKVDNALQSGNSQESVTEQDSKDSTYSLSSTLTLSKADYEKHKVYACEVTHQGLSSPVTKSFNRGEC
depletion of peripheral T cells [2]: does not deplete
fatal case of myocarditis related to study treatment ([1]; 74 participants, case received domvanalimab and zimberelimab): 1.3%
fatal case of pneumonitis related to study treatment ([1]; 74 participants, case received domvanalimab, zimberelimab and etrumadenant): 1.3%
TEAE leading to domvanalimab dose modification/interruption [1, 4]: 27.0%
discontinued domvanalimab due to a TEAE [1, 4]: 4.0%
participants with TEAE Grade ≥3 [1, 4]: 45.9%
participants with TEAEs Grade ≥3 related to domvanalimab [1, 4]: 10.8%
participants with at least 1 TEAE [1, 4]: 93.2%
participants with serious adverse events [1, 4]: 25.6%
participants with treatment related AE related to domvanalimab [1, 4]: 56.7%
participants with treatment related SAEs [1, 4]: 8.3%
proliferative marker (Ki67) on circulating CD8+ T cells (CD8+ T cells; patients of the Example 5 study): increases
RO across all dose groups (TIGIT; 24 participants, 0.5-20 mg/kg Q2W/Q3W/Q4W, all post-dose time points): maximal RO
TIGIT receptor occupancy (RO) (TIGIT; Q2W, monotherapy and combination cohorts, all cell types, 1 hour after end of infusion of first dose): ≥ 98%
RO at later time points (TIGIT; Q2W, pre-dose Day 15, 29, 57, 85): complete RO was maintained
dose proportionality of PK ([3]; 0.5-10 mg/kg): roughly dose proportional
increase of concentration at end of infusion (Ceoinf) [3, 5]: 15 fold
increase of concentration at the end of the dosing interval (Ctrough) [3, 5]: 27 fold
increase of mean area under the concentration time curve over the first dosage interval [3, 5]: 17 fold
